Experimental data taken from the DeepSol protein solubility set.

Assay: soluble on expression in E. coli; label from the status in PepcDB or PDB records

Sequence	soluble on expression in E. coli
MKLSRRSFMKANAVAAAAAAAGLSVPGVARAVVGQQEAIKWDKAPCRFCGTGCGVLVGTQQGRVVACQGDPDAPVNRGLNCIKGYFLPKIMYGKDRLTQPLLRMKNGKYDKEGEFTPITWDQAFDVMEEKFKTALKEKGPESIGMFGSGQWTIWEGYAASKLFKAGFRSNNIDPNARHCMASAVVGFMRTFGMDEPMGCYDDIEQADAFVLWGANMAEMHPILWSRITNRRLSNQNVTVAVLSTYQHRSFELADNGIIFTPQSDLVILNYIANYIIQNNAINQDFFSKHVNLRKGATDIGYGLRPTHPLEKAAKNPGSDASEPMSFEDYKAFVAEYTLEKTAEMTGVPKDQLEQLAQLYADPNKKVISYWTMGFNQHTRGVWANNLVYNLHLLTGKISQPGCGPFSLTGQPSACGTAREVGTFAHRLPADMVVTNEKHRDICEKKWNIPSGTIPAKIGLHAVAQDRALKDGKLNVYWTMCTNNMQAGPNINEERMPGWRDPRNFIIVSDPYPTVSALAADLILPTAMWVEKEGAYGNAERRTQFWRQQVQAPGEAKSDLWQLVQFSRRFKTEEVWPEDLLAKKPELRGKTLYEVLYATPEVSKFPVSELAEDQLNDESRELGFYLQKGLFEEYAWFGRGHGHDLAPFDDYHKARGLRWPVVNGKETQWRYSEGNDPYVKAGEGYKFYGKPDGKAVIFALPFEPAAEAPDEEYDLWLSTGRVLEHWHTGSMTRRVPELHRAFPEAVLFIHPLDAKARDLRRGDKVKVVSRRGEVISIVETRGRNRPPQGLVYMPFFDAAQLVNKLTLDATDPLSKETDFKKCAVKLEKV	not soluble
ELKDLQKDEKFWTESSQFKVSVPVGWDINHKEVCFEIGNEQNHTLICGRSGSGKSNFLHVLIQNLAFYYAPNEVQLFLLDYKEGVEFNAYTDPNILEHARLVSVASSVGYGMSFLNWLCKEMQERANLFKQFNVKDLSDYRKHGEIPRLIVVIDEFQVLFSDNKSTKAVEGHLNTLLKKGRSYGVHLILATQTMRGTDINRSIMAQIANRIALSMDAEDSNSILGDDAACELVRPEGIFNNNGGHQKHHTKMSIPKAP	not soluble
SNAKELIQNIIEESYTDSQFTLSVLSEKLDLSSGYLSIMFKKNFGIPFQDYLLQKRMEKAKLLLLTTELKNYEIAEQVGFEDVNYFITKFKKYYQITPKQYRE	soluble
MYIPKHFESMELSRYKLSKKPPLGTLFSSKASRQGFFGWRTSSNKDDPDFGMCASHIPFVFVEFDNGEHKLIAHLARKNKHVEMLERVQKCLVVFQSVDSYISPAWFPMKKKTHKFVPTWDFAAVHVYGTPRIIRDDKDWLINMLSTLTDQEEEKRPEGENVRSKVERF	soluble
MGSDKIHHHHHHMNYKTSIADNVTEKEISEKLGISLSTVKRSVSRLKNNKNLIDKVISNNVIAEGSYKTYNKYHVAKCNEDFFYIYNSFFNDDMNIAKASERIKIKNFLLKLKAICKKETNKYISESPYMDGLNKAELSKKLGIIDTKTLNKYLEMAVNAGQIKYITNGLLILNKSIIPDFKKDDTDTRIYHIIYDWCIDNDVVPPDRNDEIKIMEDGSVRRKNSLLLEIAGKLGYMKDEEIRSLLTNRITSEEITLEYIAKVLNIKNKKKKEEIEWPPIIMLD	not soluble
MAWPDLDPPRLAERPLSLQEALFVLEAPPEALPALAEAAIRVKEYFFGRRLKLVRLLNVKSGFCPEDCAYCAQSARSQAAIARYPLLSLEEILERAEEAQRLSARRFCLVAALRGPTPKVLERLGEAAQAIKARFPLELCASLGLLEEGMAEALKAAGFDYYNHNLNTVPSLYPRIATTHTYQDRLWTLKRAREAGLKLCSGVILGMGEGPKEVYEMALALRELGVESLPVNFLLPIPGTPLGDGRTVAGLTPERALKALILFRLLNPKAELRASAGRERYLGPYEPLAFRMVNSIFLQGYLTQPGSPWERDRALWESLDLDVEEGACG	soluble
MLQRTLAKSISVTGVGLHSGERVALTLHPAPENSGISFRRTDLDGEMGEQIKLTPYLINDTRLSSTIVTDKGVRVGTIEHIMSALSAYGIDNALIELNAPEIPIMDGSSLPFIYLLQDAGVVDQKAQKRFLKILKPVEIKEAGKWVRFTPYDGFKVTLTIEFDHPVFNRSSPTFEIDFAGKSYIDEIARARTFGFMHEVEMMRAHNLGLGGNLNNAIVIDDTDVLNPEGLRYPDEFVRHKILDAIGDLYIVGHPIIGAFEGYKSGHAINNALLRAVLADETAYDRVEFADSDDLPDAFHELNIRTCGLEHHHHHH	not soluble
SPPPKAGLPLQQELASGSALVTDQNTGKVLYSRNPDLVVPIASITKLMTAMVVLDSKLPLDEVLPIAISETSEMRGVFSRVRVGSQISRRDMLLLALMSSENRAAASLAQNYPGGKNAFVKAMNAKAHALGMKNTRYVEPTGLSLHNVSTARDLTRLLVASRQYPLLSQWSTTPEKTVAFRHPNYTLGFRNTNHLINNKTWNIQLTKTGFTNEAGHCLVMRTTINRSPVNLVVLDAFGKYTHFADATRLRRWLETGQVTAIPAAAKAYRLQRDRERGLGQPVAQAVR	soluble
MKPTDTSEKALEQLIVRHLAGISEHASVPPNAVQSPGAIYALGGYVLGRATDFNRDVALDTVQLLAFLQATQPDAVETLELAHEGIKRTQFLHRLQGEITKRGVVDVLRKGVSHGPVRVDLYRLLPTPGNTNAAEAFGRNIFSITRQVRYSHDSGNELDLVIFVNGLPVLTFELKNSLTKQTVADAIVQYQSTRSPQELLFQPGRCIAHFAVDDAEVYFCTELKGKASWFLPFNQGWNNGAGNPPNPNGLKTDYLWKQVLAKESLANIIESFAQVVEEQETDATTGRKKKKRKPVFPRFHQLRTVRALLRRTRSDGVGKRYLIQHSAGSGKSNTIAWLAHQLVELRSVADPLMPQFDSIIVITDRRALDTQIARTIKGYDHVASIFGHSDNAQELRDYLRRGRKIIVTTVQKFPFILEEIGDLSGRTFALLIDEAHSSQGGKTTARMHEALSGKTDEEAFEEDATQDAVNTEIEKRIQSRRMLSNASYFAFTATPKNRTLELFGEKTVVDDKVEFRSPEELTYTTKQAIQEGFILDVIAHYTTLDSFYQVAKTVENDPDFDKARALKKIRHYVESHDKAIRRKAEIMVDHFVAQVMGAKKIGGKARAMIVCNGIARAIDYWREVSDYLEQIKSPYKAIVAYSGEFEIGGEKKTEADLNDFPSKEIPDRLRQDPYRFLIVANKFVTGFDEPLLHTMYVDKKLAGVQAVQTLSRLNRAHPQKHDTFVLDFADNAEAVKKAFQDYYRATIQTGETDANKLHDLKADLDDKQIYSWPQVEDLVALYLSGADRDKLDPILDHCVEQYQANLDEDNQVEFKGKAKAFVRSYGFLAAILSYGHPAWEKLSIFLNFLIPKLPAPKEEDLSKGVLESIDIDSYRVEARAALKMAMDDTDATVEVAPVGGGGGKGEPDIDKLSNILKTFNDLFGNIDWKDADKIGKVIAEEIPVRVAQDKAYQNAQVNSDRQNAKLEHDKALNRVVLELLSDHTELFKQFSDNPNFKRWLTDMVFDVTYQQNPAHGVEDVRMRALDIVRDRFDAAVVWSQAVDMLLDRLAAGGRNSLGIADLALIEETSGLSVSHVLFPVLNLLSAHDVGILNREFVRVGSTDTPQTMSFDEVRLLAQKDPEGDDWAECLSIRWALQDAQR	not soluble
MNKEQLQQMRQAPGFVGALDQSGGSTPKALKAYGIQPDAYQSEEEMFDLIHQMRTRMITSPAFATGKIIGVILFERTMRGKIEGMPTADFLWEKRHIVPFLKVDKGLQDEANGVQLMKPFPELGKLCEEAVGYHVFGTKMRSVIKQANEQGIRDIVEQQFQWGKEILSHGLVPILEPEVDIHCPEKAKAEEILKRELLAQLDKMTEPVMLKITIPTVDNFYKEIIEHPMMLRVVALSGGYSREQANELLSRNHGVIASFSRALVEGLSARQTDAEFNAMLEASIEDVYQASIK	soluble
MKAAPLIGISRHRLSTDGEGVTTLVAFHGCPLRCKYCLNPQSLHSEGIWKNYDCEQLYEEVRQDELYFLATNGGITFGGGEPCLQSDFIYEFRQLCGQEWQLSVETSLNVTQENIEKLVPVVDSYIIDIKDINNTIYQKYTGKNNEKVLHNLQYLIEHGKNEQIIVRTPVIPAYNTENDVDNSIRLLKEMGIIQFDRFTYKTPNNCQP	not soluble
ADETLAEFHVEMGGCENCHADGEPSKDGAYEFEQCQSCHGSLAEMDDNHKPHDGLLMCADCHAPHEAKVGEKPTCDTCHDDGRTAK	soluble
MTSSLVLILAPLALVAIGEAAFGNSSKIFEIPGLEVMASDKYPHFTTIETVSRTKVHRHRREVIAGQIYDWNSYEIPFQIWGGDYNFQSLIRRGIRMWEDSTCLRFKENQQSRDAIRYVLEKGDSCFTEYIGRNGGHQDIIIGSECAEEYVVAHETGHALGFWHTHQRPDRDRHISINWKNVMEEATASFMPFRSMLQAFGIRQVSPRRVPYDYGSLMHYHAVAHAVKVSDFTIVPKELKYVTTMGTEKMAFLDAKVINDIYCPNACQGRNHLNCLAGGYPDPNNCNVCRCPEGLGGPDCGRLQPSPCGGEIHASDQWQTLSSPSGRDVHCYWRISVPEGSRVRFRLSDGEFPCSYGCQSYVEIKHKLDVRLTGFRSCCYRPKEDTVSESNQIFVIYHPNGRTARFSLRFRRQA	not soluble
MLATPGRFFEKFQKMDKVYRRFYQHELAEYQFTPNEIAVILFLYNNAPDLDTATDIVRCKGISKGLVARSVDSLCREGYLTAVREPADRRIMHLKLSEKSRPITERIAVKQKELAGKIECGITPEELRITSATLDKLLINTEQLLKGKENHAE	soluble
MINDDILAHARQCAPAESCGYVVRTAQGERYFPCENLSAEPTMYFRISPEDYLNARNRGDIVALVHSHPDGKPCLSSADRTLQIQSGLDWWLVCDNRIHKFRCVPHLTGRQFEHGVTDCYTLFRDAYHLAGIDMPDFDREDDWWSQGKSLYLDHLEAAGFYRVNPEDAQPGDVLICCFGSPTPNHAAIYCGNGELLHHIPEQLSKREGYNDKWQRRTHSIWRHRQWCESAFTGIYNDLESASASA	not soluble
MSEFDELKYLTGFGNEHATSDPRVPDALPVGQNSPQKCSHGLYAEQLSGTAFTAPRSQNQRSWLYRIRPSVIHRPFEAMKENDQHWTNNFSSIPPNPNQYRWNPFPLPTKEGVTFVDNLYTVCGGGDVISRTGLAIHQFSCNASMEHTAMYNSDGDFLIVPQQGALEITTEFGRLLVNPQEIAVIPQGIRFSVAVRGPSRGYILEVYGTHFQLPDLGPIGANGLANPRDFEAPVAWFEDLDVEFTIINKYQGSWFQAKQGHSPFDVVGWHGNYVPYKYDLKKFMVINTVSFDHCDPSIFTVLTAPSVKHGTAIADFVIFPPRWGCADNTFRPPYYHRNCMSEYMGLITGCYEAKEGGFKPGGGSLHSMMTPHGPDFNCFEMASNADLKPQRVAEGTMSFMFESSLNMAITNWAVYQNVDKDYYKDWQPLKKHFTMPK	not soluble
QIGELKTTVGNSTIKVNDEVQVGSAFEAILGIEGLNGDTEVYSAEYLFEYNAEAFILNEITSFNDSLFVKSKEVEPGKVRILVASLGNEIEKDSDLVKVNLTPKISSELEVLGLTTALVGAGDGNTHDLELSSKEVKINEEAS	soluble
MGSDKIHHHHHHMETVYFKTLLAVVETGSFSRAAERLCITQSAVSQRIKLLEGRYGYTLIDRAGNFLVPTAAGELVIQKARVIIEHELALLGALKLLPAKTVISFCCSPCFGTVFLPALVRDFVLRNSEQIDFRCVLGSSQGAVRGLRDTDFNIIVIEHCTPLDLSPYDVISLPNDEIIFVSNPATGLDVPEPDLSQLLNLPVIMRKEGCSGTEQLAANLARFGKVLEDFRSVTGLDDPRLIVQTVKTEPYLAFVPKSLVLKELAEGSLRAHTVKGFSHARFRSLVTAPKRYSDPCRSNFIKAVMETVCHISAVSMPGDGPGSRWHKKRPSGRRAPLNSAVTNNAAI	not soluble
